This data set has as its system Escherichia coli TOP10. Put plainly: shrunken log2 fold change of peptide-encoding DNA abundance (4.5 h post-induction vs induction); higher = less antimicrobial activity (less host growth inhibition). The following applies: time post-induction: 4.5 h; library: site-saturation at positions 5, 18, 19, 20.
With RRIRFRPPRLPRPRPRPGTIPRP, the “shrunken log2 fold change” value was -0.173.
Turning to RRIRDRPPRLPRPRPRPFGAPRP, the “shrunken log2 fold change” value was 0.191.
The result for RRIRIRPPRLPRPRPRPYHWPRP reads -0.275; that for RRIRHRPPRLPRPRPRPRKSPRP, 0.119.
The result for RRIRERPPRLPRPRPRPMMWPRP reads 0.3.
Regarding RRIRHRPPRLPRPRPRPIQNPRP, the “shrunken log2 fold change” value is -0.252.
The result for RRIRWRPPRLPRPRPRPPYMPRP reads -0.16; that for RRIRERPPRLPRPRPRPCRKPRP, -0.103.
Turning to RRIRERPPRLPRPRPRPKFEPRP, the “shrunken log2 fold change” value was -0.0495.
Regarding RRIRQRPPRLPRPRPRPLEDPRP, the “shrunken log2 fold change” value came to 0.0428.
The result for RRIRPRPPRLPRPRPRPSKIPRP reads -0.129; that for RRIRRRPPRLPRPRPRPTQAPRP, -0.0717; that for RRIRGRPPRLPRPRPRPFEKPRP, 0.22.
The result for RRIRRRPPRLPRPRPRPSNKPRP reads -0.101; that for RRIRGRPPRLPRPRPRPYWLPRP, -0.0478.
In the case of RRIRHRPPRLPRPRPRPFHEPRP, the “shrunken log2 fold change” value was -0.2.
Take RRIRYRPPRLPRPRPRPFFVPRP: the “shrunken log2 fold change” value is -0.689.
Regarding RRIRIRPPRLPRPRPRPLMFPRP, the “shrunken log2 fold change” value was -0.617.
To RRIRTRPPRLPRPRPRPHFMPRP belongs -0.339; to RRIRKRPPRLPRPRPRPPCCPRP, 0.39.
As for RRIRWRPPRLPRPRPRPSDRPRP, the “shrunken log2 fold change” value is -0.0684.
To RRIRIRPPRLPRPRPRPMMRPRP belongs 0.116; to RRIRFRPPRLPRPRPRPVHAPRP, 0.184.
Consider RRIRDRPPRLPRPRPRPHGGPRP, for which the “shrunken log2 fold change” value came to 0.0317.
As for RRIRGRPPRLPRPRPRPREDPRP, the “shrunken log2 fold change” value was found to be 1.47.
The result for RRIRARPPRLPRPRPRPNHCPRP reads 0.956; that for RRIRRRPPRLPRPRPRPCQEPRP, 0.139.
The result for RRIRNRPPRLPRPRPRPALTPRP reads -0.158; that for RRIRDRPPRLPRPRPRPNHPPRP, -0.222; that for RRIRHRPPRLPRPRPRPMYWPRP, -0.222.
As for RRIRPRPPRLPRPRPRPDFIPRP, the “shrunken log2 fold change” value is -0.233.
For RRIRPRPPRLPRPRPRPTYTPRP, the “shrunken log2 fold change” value is -0.272.
The result for RRIRMRPPRLPRPRPRPSASPRP reads 1.7; that for RRIRGRPPRLPRPRPRPMCAPRP, 1.88; that for RRIRARPPRLPRPRPRPEADPRP, 1.53.
To RRIRNRPPRLPRPRPRPELIPRP belongs -0.0327.
As to RRIRPRPPRLPRPRPRPCHNPRP, the “shrunken log2 fold change” value was determined as 0.156.
To RRIRCRPPRLPRPRPRPTGSPRP belongs 0.0208; to RRIRIRPPRLPRPRPRPRIDPRP, -0.0642.
The result for RRIRHRPPRLPRPRPRPEEPPRP reads 0.0179.
As to RRIRMRPPRLPRPRPRPAKWPRP, the “shrunken log2 fold change” value turned out to be 0.708.
The result for RRIRLRPPRLPRPRPRPMSWPRP reads 0.0708; that for RRIRSRPPRLPRPRPRPFSWPRP, -0.197; that for RRIRMRPPRLPRPRPRPCCFPRP, 0.116.
The result for RRIRPRPPRLPRPRPRPKGVPRP reads 0.000119; that for RRIRCRPPRLPRPRPRPRFSPRP, -0.289; that for RRIRHRPPRLPRPRPRPSREPRP, 0.0138.
On to RRIRVRPPRLPRPRPRPQMIPRP, for which the “shrunken log2 fold change” value is -0.425.
The result for RRIRERPPRLPRPRPRPAYKPRP reads -0.21.
Consider RRIRDRPPRLPRPRPRPSQQPRP, for which the “shrunken log2 fold change” value was -0.123.
To RRIRERPPRLPRPRPRPNRRPRP belongs -0.0103; to RRIRRRPPRLPRPRPRPQAPPRP, 0.236; to RRIRIRPPRLPRPRPRPEVVPRP, 0.00224.
With RRIRWRPPRLPRPRPRPYVQPRP, the “shrunken log2 fold change” value was -0.0608.
RRIRNRPPRLPRPRPRPNFLPRP: the “shrunken log2 fold change” value is -0.0488.
On to RRIRSRPPRLPRPRPRPNSMPRP, for which the “shrunken log2 fold change” value is -0.215.
To RRIRTRPPRLPRPRPRPAPGPRP belongs 0.544; to RRIRNRPPRLPRPRPRPTQRPRP, 0.582; to RRIRNRPPRLPRPRPRPTVWPRP, 0.563.
The result for RRIRVRPPRLPRPRPRPIEAPRP reads -0.00729; that for RRIRLRPPRLPRPRPRPYGWPRP, -0.265; that for RRIRARPPRLPRPRPRPGVWPRP, 1.55.
The result for RRIRGRPPRLPRPRPRPYHDPRP reads -0.0405; that for RRIRLRPPRLPRPRPRPIPHPRP, -0.332.
With RRIRKRPPRLPRPRPRPTSKPRP, the “shrunken log2 fold change” value came to 0.443.
To RRIRCRPPRLPRPRPRPCTAPRP belongs -0.361.
As for RRIRWRPPRLPRPRPRPNCQPRP, the “shrunken log2 fold change” value is -0.14.
The result for RRIRYRPPRLPRPRPRPCLAPRP reads -0.838; that for RRIRNRPPRLPRPRPRPVGDPRP, 0.0156; that for RRIRLRPPRLPRPRPRPPRMPRP, 0.232.
Regarding RRIRNRPPRLPRPRPRPFHFPRP, the “shrunken log2 fold change” value is -0.359.
To RRIRIRPPRLPRPRPRPRIQPRP belongs -0.275; to RRIRKRPPRLPRPRPRPFMYPRP, -0.401; to RRIRNRPPRLPRPRPRPYHPPRP, -0.135.
To RRIRGRPPRLPRPRPRPMHLPRP belongs 0.186; to RRIRSRPPRLPRPRPRPGPKPRP, 1.07; to RRIRRRPPRLPRPRPRPQVTPRP, -0.0275.
To RRIRMRPPRLPRPRPRPGLHPRP belongs 0.412; to RRIRTRPPRLPRPRPRPMSWPRP, 0.0201.
As for RRIRYRPPRLPRPRPRPQLEPRP, the “shrunken log2 fold change” value is -0.418.
The result for RRIRMRPPRLPRPRPRPIDFPRP reads -0.00165; that for RRIRFRPPRLPRPRPRPEFAPRP, -0.175; that for RRIRTRPPRLPRPRPRPKVKPRP, 0.00985.
The result for RRIRHRPPRLPRPRPRPSLYPRP reads 0.07; that for RRIRCRPPRLPRPRPRPWRSPRP, -0.0803; that for RRIRSRPPRLPRPRPRPIHWPRP, 0.151.
On to RRIRLRPPRLPRPRPRPIAAPRP, for which the “shrunken log2 fold change” value amounted to 0.272.
As to RRIRIRPPRLPRPRPRPFQTPRP, the “shrunken log2 fold change” value was -0.271.
Take RRIRYRPPRLPRPRPRPEPPPRP: the “shrunken log2 fold change” value stood at 0.49.
Consider RRIRRRPPRLPRPRPRPYYEPRP, for which the “shrunken log2 fold change” value is -0.572.
The result for RRIRGRPPRLPRPRPRPLAYPRP reads 0.721; that for RRIRIRPPRLPRPRPRPVWIPRP, -0.242.
The result for RRIRKRPPRLPRPRPRPQGEPRP reads -0.000844; that for RRIRTRPPRLPRPRPRPFVIPRP, -0.488.
With RRIRFRPPRLPRPRPRPRHHPRP, the “shrunken log2 fold change” value is -0.116.
The result for RRIRGRPPRLPRPRPRPKQPPRP reads 1.08; that for RRIRERPPRLPRPRPRPDHIPRP, -0.537; that for RRIRWRPPRLPRPRPRPNADPRP, 0.466.
With RRIRRRPPRLPRPRPRPNLNPRP, the “shrunken log2 fold change” value is -0.0389.
With RRIRFRPPRLPRPRPRPTPAPRP, the “shrunken log2 fold change” value amounted to 0.951.
To RRIRFRPPRLPRPRPRPSWGPRP belongs -0.243; to RRIRQRPPRLPRPRPRPVHRPRP, -0.0635.
To RRIRRRPPRLPRPRPRPMDQPRP belongs 0.132; to RRIRLRPPRLPRPRPRPFTAPRP, -0.625; to RRIRQRPPRLPRPRPRPFWLPRP, 0.0473.
For RRIRWRPPRLPRPRPRPIPAPRP, the “shrunken log2 fold change” value stood at 0.523.
To RRIRKRPPRLPRPRPRPSNPPRP belongs -0.0952; to RRIRDRPPRLPRPRPRPKQAPRP, 0.0366.
Take RRIRFRPPRLPRPRPRPLNIPRP: the “shrunken log2 fold change” value was -0.594.
RRIRLRPPRLPRPRPRPSDGPRP: the “shrunken log2 fold change” value is -0.162.
To RRIRCRPPRLPRPRPRPRKWPRP belongs -0.0179; to RRIRERPPRLPRPRPRPHNIPRP, -0.274.
To RRIRNRPPRLPRPRPRPMHWPRP belongs 0.0477; to RRIRIRPPRLPRPRPRPVVEPRP, -0.0638.
Turning to RRIRCRPPRLPRPRPRPRGNPRP, the “shrunken log2 fold change” value was 0.0747.
The result for RRIRDRPPRLPRPRPRPKSMPRP reads -0.0219; that for RRIRERPPRLPRPRPRPLDTPRP, 0.213.
Regarding RRIRVRPPRLPRPRPRPTELPRP, the “shrunken log2 fold change” value worked out at 0.324.
To RRIRQRPPRLPRPRPRPDGKPRP belongs 0.0269; to RRIRDRPPRLPRPRPRPRKYPRP, -0.283.
The result for RRIRARPPRLPRPRPRPSWEPRP reads 0.162; that for RRIRVRPPRLPRPRPRPLFKPRP, -0.262.
To RRIRHRPPRLPRPRPRPCMTPRP belongs 0.0183; to RRIRFRPPRLPRPRPRPGEFPRP, -0.239.
Consider RRIRMRPPRLPRPRPRPCMYPRP, for which the “shrunken log2 fold change” value turned out to be 0.051.

The record behind these values is the supplement of paper PMC9112550, “Optimization of the antimicrobial peptide Bac7 by deep mutational scanning” (BMC Biology, 2022).
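Further: peptides expressed intracellularly from a pBAD plasmid library in pooled LB shake-flask culture, induced with 0.3% L-arabinose, DNA abundance read by NGS, three biological replicates, DESeq2 with apeglm shrinkage.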
